Test results from article PMC4130151.

Biological target: Fibronectin (UniProt P02751)
Assay: SPR; BIAcore T100; FN covalently immobilised on CM5 chip; EF-Tu 0-10.0 μM injected in 10 mM HEPES, 150 mM NaCl, 3 mM EDTA, 0.005% P20, pH 7.4, 30 μL/min, 25°C; KD from equilibrium

UniProt P02751, sequence (P02751 32-2477): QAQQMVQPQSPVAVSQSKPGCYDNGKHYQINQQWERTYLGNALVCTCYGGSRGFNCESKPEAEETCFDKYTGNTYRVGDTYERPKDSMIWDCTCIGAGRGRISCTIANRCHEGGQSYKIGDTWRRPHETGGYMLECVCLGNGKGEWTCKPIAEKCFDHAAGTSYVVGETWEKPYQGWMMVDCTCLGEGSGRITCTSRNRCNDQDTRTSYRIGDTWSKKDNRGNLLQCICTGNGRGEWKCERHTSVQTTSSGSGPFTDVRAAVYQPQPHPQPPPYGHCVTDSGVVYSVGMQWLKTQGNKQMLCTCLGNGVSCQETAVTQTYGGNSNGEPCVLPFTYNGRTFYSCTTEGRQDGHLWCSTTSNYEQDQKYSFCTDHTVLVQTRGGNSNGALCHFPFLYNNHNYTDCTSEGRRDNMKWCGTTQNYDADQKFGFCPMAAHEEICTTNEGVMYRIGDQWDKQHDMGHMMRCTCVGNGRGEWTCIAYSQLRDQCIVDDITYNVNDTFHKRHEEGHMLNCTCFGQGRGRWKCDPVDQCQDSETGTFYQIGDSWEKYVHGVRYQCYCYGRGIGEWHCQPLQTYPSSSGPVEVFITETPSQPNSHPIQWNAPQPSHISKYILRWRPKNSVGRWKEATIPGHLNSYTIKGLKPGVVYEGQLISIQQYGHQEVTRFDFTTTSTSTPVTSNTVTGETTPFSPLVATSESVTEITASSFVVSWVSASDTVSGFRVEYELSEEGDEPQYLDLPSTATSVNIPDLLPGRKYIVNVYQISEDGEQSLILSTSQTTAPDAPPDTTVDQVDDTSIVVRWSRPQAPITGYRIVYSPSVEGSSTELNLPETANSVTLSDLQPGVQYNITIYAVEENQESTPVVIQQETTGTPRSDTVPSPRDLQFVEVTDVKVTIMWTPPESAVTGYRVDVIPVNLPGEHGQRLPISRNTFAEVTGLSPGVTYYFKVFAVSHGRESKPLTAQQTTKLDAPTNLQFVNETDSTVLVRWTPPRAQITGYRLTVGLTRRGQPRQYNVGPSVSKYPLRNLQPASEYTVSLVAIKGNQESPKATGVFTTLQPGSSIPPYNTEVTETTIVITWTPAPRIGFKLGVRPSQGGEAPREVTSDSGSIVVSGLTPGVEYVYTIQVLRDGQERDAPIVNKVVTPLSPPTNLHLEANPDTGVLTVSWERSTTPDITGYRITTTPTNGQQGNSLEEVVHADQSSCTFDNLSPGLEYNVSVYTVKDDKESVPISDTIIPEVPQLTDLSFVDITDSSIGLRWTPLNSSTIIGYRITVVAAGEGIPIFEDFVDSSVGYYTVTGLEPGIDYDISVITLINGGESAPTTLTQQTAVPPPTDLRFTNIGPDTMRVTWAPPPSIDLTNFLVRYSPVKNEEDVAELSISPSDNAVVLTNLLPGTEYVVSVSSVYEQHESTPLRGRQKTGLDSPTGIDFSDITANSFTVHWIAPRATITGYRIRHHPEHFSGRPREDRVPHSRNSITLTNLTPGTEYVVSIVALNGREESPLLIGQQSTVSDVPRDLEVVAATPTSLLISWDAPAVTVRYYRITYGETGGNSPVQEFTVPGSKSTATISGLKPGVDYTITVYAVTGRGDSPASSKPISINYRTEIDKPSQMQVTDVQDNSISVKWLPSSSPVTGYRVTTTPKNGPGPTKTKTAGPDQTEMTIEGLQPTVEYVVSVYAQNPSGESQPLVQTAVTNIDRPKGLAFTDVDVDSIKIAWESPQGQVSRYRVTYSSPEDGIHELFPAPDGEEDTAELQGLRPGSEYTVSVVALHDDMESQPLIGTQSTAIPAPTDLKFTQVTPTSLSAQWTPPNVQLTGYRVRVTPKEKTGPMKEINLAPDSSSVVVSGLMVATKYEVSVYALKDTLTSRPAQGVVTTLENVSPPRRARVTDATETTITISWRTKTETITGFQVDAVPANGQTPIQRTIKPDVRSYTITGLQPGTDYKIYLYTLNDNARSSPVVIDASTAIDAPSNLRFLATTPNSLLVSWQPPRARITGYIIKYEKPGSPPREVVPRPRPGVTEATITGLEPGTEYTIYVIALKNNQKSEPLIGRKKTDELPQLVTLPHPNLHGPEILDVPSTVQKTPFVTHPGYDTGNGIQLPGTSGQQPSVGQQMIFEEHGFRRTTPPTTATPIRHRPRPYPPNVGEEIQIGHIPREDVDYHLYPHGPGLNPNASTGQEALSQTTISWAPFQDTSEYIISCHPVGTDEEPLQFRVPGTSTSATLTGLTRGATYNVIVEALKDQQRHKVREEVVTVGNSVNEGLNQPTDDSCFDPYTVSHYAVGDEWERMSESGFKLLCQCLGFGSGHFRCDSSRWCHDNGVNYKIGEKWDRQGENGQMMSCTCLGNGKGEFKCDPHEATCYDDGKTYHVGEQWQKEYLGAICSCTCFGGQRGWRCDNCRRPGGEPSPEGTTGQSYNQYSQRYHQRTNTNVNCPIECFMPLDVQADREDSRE

With “Mycobacterium avium subsp. paratuberculosis elongation factor Tu (from UniProt Q73SD1 1-396) (natural protein)” the Kd was 3.1 µM.
